From article PMC5983622, “New Insight into the Octamer of TYMS Stabilized by Intermolecular Cys43-Disulfide” (International Journal of Molecular Sciences, 2018)

Biological target: the molecule itself
Test: SDS-PAGE without reductant (Coomassie brilliant blue, Western blot); purified protein, serially diluted, incubated with loading buffer without beta-mercaptoethanol at 37 °C or 100 °C for 10 min; also with beta-mercaptoethanol at 100 °C (~280 kDa band disappeared, ~70 kDa band weakened); also after incubation with 2 mM dUMP and 2 mM mTHF (bands unchanged); anti-His-tag blot

Row | Protein | binding result
1 | TYMS (Cys210Gly) (enzyme, human, UniProt P04818-1 1-313, looked up, thymidylate synthase (TYMS), human, NM_001071.2, with Cys210Gly made by fusion PCR, in pET-28a(+); Same construct as m1 with the point mutation; source: expressed from pET-28a, purified (Ni-NTA twice); not shown: His6, N-terminal, kept) MPVAGSELPRRPLPPAAQERDAEPRPPHGELQYLGQIQHILRCGVRKDDRTGTGTLSVFGMQARYSLRDEFPLLTTKRVFWKGVLEELLWFIKGSTNAKELSSKGVKIWDANGSRDFLDSLGFSTREEGDLGPVYGFQWRHFGAEYRDMESDYSGQGVDQLQRVIDTIKTNPDDRRIIMCAWNPRDLPLMALPPCHALCQFYVVNSELSGQLYQRSGDMGLGVPFNIASYALLTYMIAHITGLKPGDFIHTLGDAHIYLNHIEPLKIQLQREPRPFPKLRILRKVEKIDDFKAEDFQIEGYNPHPTIKMEMAV | binds
2 | TYMS (Cys180Gly) (enzyme, human, UniProt P04818-1 1-313, looked up, thymidylate synthase (TYMS), human, NM_001071.2, with Cys180Gly made by fusion PCR, in pET-28a(+); Same construct as m1 with the point mutation; source: expressed from pET-28a, purified (Ni-NTA twice); not shown: His6, N-terminal, kept) MPVAGSELPRRPLPPAAQERDAEPRPPHGELQYLGQIQHILRCGVRKDDRTGTGTLSVFGMQARYSLRDEFPLLTTKRVFWKGVLEELLWFIKGSTNAKELSSKGVKIWDANGSRDFLDSLGFSTREEGDLGPVYGFQWRHFGAEYRDMESDYSGQGVDQLQRVIDTIKTNPDDRRIIMGAWNPRDLPLMALPPCHALCQFYVVNSELSCQLYQRSGDMGLGVPFNIASYALLTYMIAHITGLKPGDFIHTLGDAHIYLNHIEPLKIQLQREPRPFPKLRILRKVEKIDDFKAEDFQIEGYNPHPTIKMEMAV | binds
